{"source": "patent US20250154284A1", "biological_target": "MASP-2-T1 (aa 1-414) (human) (UniProt O00187)", "assay": "ELISA, antibody titrated on truncated human MASP-2 T1 (aa 1-414)"}
{"substance": "benchmark antibody narsoplimab", "values": [{"measurement": "EC50 (read off the curve)", "value": 0.01, "unit": "µg/mL"}]}
